Common to all, as to assay: cell-based or functional assay
The target in experiment [1] is human HA LFA-1 stably expressed on K562 cells (K562-HA LFA-1) (human) (UniProt P20701).
Experiment [2] deals with human WT LFA-1 (alpha L beta 2) on cells, activation state not specified at the place cited (human) (UniProt P20701).
Experiment [3] addresses human LFA-1 on cells in the unstimulated, low-affinity conformation (human) (UniProt P20701).

The results in this text go back to patent publication US20130129752A1.

human WT LFA-1 (alpha L beta 2) on cells, activation state not specified at the place cited (human), sequence (P20701 26-1170, chain 1 of 2): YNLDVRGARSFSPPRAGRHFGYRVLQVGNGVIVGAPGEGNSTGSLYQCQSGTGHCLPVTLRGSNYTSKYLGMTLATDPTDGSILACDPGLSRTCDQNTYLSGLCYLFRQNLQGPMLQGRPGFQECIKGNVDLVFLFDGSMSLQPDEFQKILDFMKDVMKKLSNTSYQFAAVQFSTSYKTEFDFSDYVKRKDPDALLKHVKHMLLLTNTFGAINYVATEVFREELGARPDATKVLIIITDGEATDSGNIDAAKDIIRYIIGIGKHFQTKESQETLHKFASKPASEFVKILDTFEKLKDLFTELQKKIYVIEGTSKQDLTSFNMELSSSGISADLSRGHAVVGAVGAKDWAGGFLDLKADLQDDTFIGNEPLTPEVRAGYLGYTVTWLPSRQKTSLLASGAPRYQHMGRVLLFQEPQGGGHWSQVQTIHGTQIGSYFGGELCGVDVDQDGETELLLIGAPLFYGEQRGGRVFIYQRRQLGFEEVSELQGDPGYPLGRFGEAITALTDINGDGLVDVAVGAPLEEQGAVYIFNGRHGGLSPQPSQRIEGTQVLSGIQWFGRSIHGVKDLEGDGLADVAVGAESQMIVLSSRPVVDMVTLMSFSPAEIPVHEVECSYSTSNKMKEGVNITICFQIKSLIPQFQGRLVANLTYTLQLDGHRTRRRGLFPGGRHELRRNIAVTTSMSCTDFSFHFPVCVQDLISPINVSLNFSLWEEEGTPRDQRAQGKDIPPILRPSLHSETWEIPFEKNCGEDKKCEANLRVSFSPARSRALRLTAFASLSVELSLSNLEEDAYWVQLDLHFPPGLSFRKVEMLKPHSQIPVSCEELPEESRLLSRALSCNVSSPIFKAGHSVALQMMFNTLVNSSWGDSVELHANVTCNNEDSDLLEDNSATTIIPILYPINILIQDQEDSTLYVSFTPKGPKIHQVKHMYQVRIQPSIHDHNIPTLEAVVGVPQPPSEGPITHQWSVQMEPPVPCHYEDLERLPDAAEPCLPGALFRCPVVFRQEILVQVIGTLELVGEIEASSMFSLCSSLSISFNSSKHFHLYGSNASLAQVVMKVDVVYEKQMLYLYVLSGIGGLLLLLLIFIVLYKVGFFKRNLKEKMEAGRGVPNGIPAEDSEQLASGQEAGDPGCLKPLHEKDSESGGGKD
human WT LFA-1 (alpha L beta 2) on cells, activation state not specified at the place cited (human), sequence (P05107 23-769, chain 2 of 2, further chain): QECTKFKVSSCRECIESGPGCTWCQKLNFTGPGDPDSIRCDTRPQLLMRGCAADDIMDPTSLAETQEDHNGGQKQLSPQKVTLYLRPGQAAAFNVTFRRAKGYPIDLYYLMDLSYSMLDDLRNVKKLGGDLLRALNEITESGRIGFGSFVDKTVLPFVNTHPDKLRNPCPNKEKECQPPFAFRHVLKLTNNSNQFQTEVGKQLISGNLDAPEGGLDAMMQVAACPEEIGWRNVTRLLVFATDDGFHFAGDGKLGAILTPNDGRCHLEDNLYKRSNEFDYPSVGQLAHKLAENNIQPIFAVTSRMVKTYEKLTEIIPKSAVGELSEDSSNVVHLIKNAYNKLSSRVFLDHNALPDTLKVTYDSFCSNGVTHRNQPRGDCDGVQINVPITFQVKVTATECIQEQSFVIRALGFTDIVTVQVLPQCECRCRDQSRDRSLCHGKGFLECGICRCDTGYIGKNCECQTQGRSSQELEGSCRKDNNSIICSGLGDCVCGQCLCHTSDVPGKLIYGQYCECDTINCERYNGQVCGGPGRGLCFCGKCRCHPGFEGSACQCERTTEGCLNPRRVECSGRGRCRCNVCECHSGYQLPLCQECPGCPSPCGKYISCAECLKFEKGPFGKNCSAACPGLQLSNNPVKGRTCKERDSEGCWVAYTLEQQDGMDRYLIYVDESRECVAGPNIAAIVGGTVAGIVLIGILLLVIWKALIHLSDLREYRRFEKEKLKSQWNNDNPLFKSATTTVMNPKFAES
human LFA-1 on cells in the unstimulated, low-affinity conformation (human), sequence (P20701 26-1170, chain 1 of 2): as the sequence (P20701 26-1170, chain 1 of 2) above
human LFA-1 on cells in the unstimulated, low-affinity conformation (human), sequence (P05107 23-769, chain 2 of 2, further chain): as the sequence (P05107 23-769, chain 2 of 2, further chain) above

Regarding “TS1/22-protamine fusion protein (scFv TS1/22 fused to human protamine residues 8-29, His6 tag) (from UniProt P04553 8-29)”, the Cy3+ K562 cells/Total K562 cells, % (in vivo Cy3-siRNA delivery, SCID mouse lung, flow cytometry) in experiment [1] worked out at 87.4%; in experiment [2] it was 88.5%.
The corresponding values for “ML39-protamine fusion protein (control scFv-PF fusion protein that recognizes human ErbB2)” are 4.2% and 4.7%.
For the substance “AL-57-protamine fusion protein (scFv AL-57 fused to truncated human protamine, residues 8-29, His6 tag) (from UniProt P04553 8-29)”, the Cy3+ K562 cells/Total K562 cells, % (in vivo Cy3-siRNA delivery, SCID mouse lung, flow cytometry) was 88.1% in experiment [1] and 23.3% in experiment [2]. This substance came in with a Cy3-siRNA delivery to PBMC subsets (flow cytometry), Cy3+ T and B lymphocytes in experiment [3] of 1 to 2%.
